Results reported in US20170334995A1 (Boehringer Ingelheim, published 2017).
Where a chain is given by its changes, count along the chain named.

T1: Human LAG3 ECD-Fc (human, UniProt P18627 23-450)
T1 construct: extracellular domain; 23-450 is stated only for the immunogen; also called recombinant human LAG3 extracellular domain fused to human Fc; hLAG3-hlgFc; not shown: Fc
T1 sequence (looked up): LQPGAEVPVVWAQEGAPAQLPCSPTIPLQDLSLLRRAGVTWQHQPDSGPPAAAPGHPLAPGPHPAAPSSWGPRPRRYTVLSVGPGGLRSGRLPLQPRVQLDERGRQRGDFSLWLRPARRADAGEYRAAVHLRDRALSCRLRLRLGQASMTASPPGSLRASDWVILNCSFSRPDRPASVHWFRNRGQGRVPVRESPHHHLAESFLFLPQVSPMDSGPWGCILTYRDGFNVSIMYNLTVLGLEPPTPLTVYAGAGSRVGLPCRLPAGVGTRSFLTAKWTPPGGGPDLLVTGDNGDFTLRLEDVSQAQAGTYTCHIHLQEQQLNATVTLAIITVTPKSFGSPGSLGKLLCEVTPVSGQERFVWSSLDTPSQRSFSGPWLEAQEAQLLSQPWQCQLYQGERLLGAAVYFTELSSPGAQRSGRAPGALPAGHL

T2: human LAG3 (ECD) (human, UniProt P18627 23-450)
T2 construct: range 23-450; the screening reagent is called only 'human LAG3 (ECD)'; also called human LAG3 ECD protein
T2 sequence (looked up): T1 sequence (looked up)

B1: PD1-1 (antibody, human IgG4 S228P, kappa, V domains shown)
VH: EVMLVESGGGLVQPGGSLRLSCTASGFTFSASAMSWVRQAPGKGLEWVAYISGGGGDTYYSSSVKGRFTISRDNAKNSLYLQMNSLRAEDTAVYYCARHSNVNYYAMDYWGQGTLVTVSS
VL: EIVLTQSPATLSLSPGERATMSCRASENIDTSGISFMNWYQQKPGQAPKLLIYVASNQGSGIPARFSGSGSGTDFTLTISRLEPEDFAVYYCQQSKEVPWTFGQGTKLEIKR
notes: Humanized derivative of murine 77E11; the HC is IgG4 (Pro), kappa light chain; also called anti-PD1 antibody PD1-1
B2: PD1-2 (antibody, human IgG4 S228P, kappa, V domains shown)
VH: B1 VH with V102P
VL: B1 VL
notes: Humanized derivative of murine 77E11; the HC is IgG4 (Pro), kappa light chain; also called anti-PD1 antibody PD1-2
B3: PD1-3 (antibody, human IgG4 S228P, kappa, V domains shown)
VH: B1 VH with A31K
VL: B1 VL with T31V
notes: Humanized derivative of murine 77E11; the HC is IgG4 (Pro), kappa light chain; also called anti-PD1-3; representative anti-PD1 antibody of the invention
B4: LAG3-4 (antibody, human IgG4 S228P, kappa, V domains shown)
VH: QVTLVESGGGVVQPGRSLRLSCAFSGFSLSTSDMGVGWIRQAPGKGLEWVAHIWWDDVKRYNPALKSRFTISRDNSKNTLYLQMNSLRAEDTATYFCARIEDYGVSYYFDYWGQGTTVTVSS
VL: DIVMTQSPSFLSASVGDRVTITCKASQDVSTAVAWYQQKPGKAPKLLIYSASYRYTGVPDRFSGSGSGTDFTLTISSLQPEDFATYYCQQHYSIPLTFGQGTKLEIKR
notes: Humanized derivative of murine 496G6, human IgG4 (Pro) format, kappa; also called anti-LAG3 antibody LAG3-4
B5: LAG3-1 (antibody, human IgG4 S228P, kappa, V domains shown)
VH: B4 VH with T94V
VL: B4 VL with V3Q, T20S
notes: Humanized derivative of murine 496G6, human IgG4 (Pro) format, kappa; also called representative anti-LAG3 antibody of the invention
B6: LAG3-3 (antibody, human IgG4 S228P, kappa, V domains shown)
VH: B4 VH with R19S, I39V, A42P, F96Y
VL: B4 VL with V3Q, Q100A
notes: Humanized derivative of murine 496G6, human IgG4 (Pro) format, kappa; also called anti-LAG3 antibody LAG3-3
B7: LAG3-2 (antibody, human IgG4 S228P, kappa, V domains shown)
VH: QVTLKESGPTLVKPTQTLTLTCSFSGFSLSTSDMGVGWIRQPPGKALEWLAHIWWDDVKRYNPALKSRLTITKDTSKNQVVLTMTNMDPVDTATYFCARIEDYGVSYYFDYWGQGTTVTVSS
VL: B4 VL with V3Q, I21F
notes: Humanized derivative of murine 496G6, human IgG4 (Pro) format, kappa; also called anti-LAG3 antibody LAG3-2
B8: LAG3-5 (antibody, human IgG4 S228P, kappa, V domains shown)
VH: B7 VH with E101V
VL: B4 VL with V3Q, T20S, T85V
notes: Humanized derivative of murine 496G6, human IgG4 (Pro) format, kappa; also called anti-LAG3 antibody LAG3-5
B9: 496G6 (antibody, V domains shown)
VH: QVTLKESGPGILQPSQTLSLTCSFSGFSLSTSDMGVGWIRQPSGKGLEWLAHIWWDDVKRYNPALKSRLTISKDTSSSQVFLMIASVDTADTATYFCARIEDYGVSYYFDYWGQGTTLTVSS
VL: DIVMTQSHKFMSTSVGDRVSFTCKASQDVNTAVAWYQQKPGQSPKLLIYSASYRYTGVPDRFTGSGSGTDFTFTISSVQAEDLALYYCQQHYSIPLTFGAGTKLELK
notes: Murine monoclonal antibody from a hybridoma; also called murine progenitor antibody 496G6; monoclonal antibody produced by 496G6

How the values were obtained:
[1] = target: T3, human PD1 expressed on the surface of CHO cells (human, UniProt Q15116 25-288); assay: ligand blocking on PD1-expressing CHO cells, competitor biotin-PD-L1
T3 construct: whole, on cells; also called PD1 expressing CHO cells
T3 sequence (Q15116 25-288): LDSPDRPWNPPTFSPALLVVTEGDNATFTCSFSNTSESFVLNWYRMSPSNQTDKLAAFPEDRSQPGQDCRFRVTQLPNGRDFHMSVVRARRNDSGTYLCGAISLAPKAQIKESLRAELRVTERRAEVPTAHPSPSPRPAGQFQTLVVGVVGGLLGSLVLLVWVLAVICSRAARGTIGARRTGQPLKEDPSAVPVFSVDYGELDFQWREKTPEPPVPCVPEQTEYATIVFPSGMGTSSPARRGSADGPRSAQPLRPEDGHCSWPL
Method: (§1) The mixture was incubated for 1 hour at 37 degrees celsius. […] Percentage inhibition values were calculated in Excel and curve fitting was done with GraphPad Prism. Data points of the curve are mean values of triplicate measurements.

[2] = target: T3, human PD1 expressed on the surface of …; assay: blocking assay on cells: biotin-labelled human PD-L2 binding to PD1-expressing CHO cells, Europium-streptavidin fluorescence, % inhibition against antibody concentration [D]
Method: as §1

[3] = target: T4, human PD1 ECD (human, UniProt Q15116 21-170); assay: SPR (ProteOn XPR36), antibody captured on Protein A/G, PD1 ECD as analyte, 1:1 Langmuir fit
T4 construct: range 21-170; also called recombinant monomeric human PD1; recombinant human PD1
T4 sequence (Q15116 21-170 limits assumed, form in doubt): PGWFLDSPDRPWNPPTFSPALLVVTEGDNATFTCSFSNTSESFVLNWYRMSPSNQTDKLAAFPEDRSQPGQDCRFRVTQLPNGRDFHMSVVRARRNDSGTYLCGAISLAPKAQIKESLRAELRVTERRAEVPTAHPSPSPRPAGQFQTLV
Method: Binding affinities to recombinant monomeric human PD1 were measured by SPR using a ProteOn XPR36 instrument. […] Human PD1 ECD was injected over the captured antibodies for 600 sec at a flowrate of 30 ul/min and a dissociation for 1200 sec.

[4] = target: T3, human PD1 expressed on the surface of …; assay: blocking assay on cells: biotin-labelled human PD-L1 binding to PD1-expressing CHO cells, Europium-streptavidin fluorescence, % inhibition against antibody concentration [A]
Method: as §1

[5] = target: T3, human PD1 expressed on the surface of …; assay: ligand blocking on PD1-expressing CHO cells, competitor biotin-PD-L2
Method: as §1

[6] = target: T3, human PD1 expressed on the surface of …; assay: blocking assay on cells: biotin-labelled human PD-L1 binding to PD1-expressing CHO cells, Europium-streptavidin fluorescence, % inhibition against antibody concentration [B]
Method: as §1

[7] = target: T3, human PD1 expressed on the surface of …; assay: blocking assay on cells: biotin-labelled human PD-L2 binding to PD1-expressing CHO cells, Europium-streptavidin fluorescence, % inhibition against antibody concentration [E]
Method: as §1

[8] = target: T1, Human LAG3 ECD-Fc; assay: SPR, antibody captured on Protein A/G, LAG3 ECD-Fc as analyte, 1:1 Langmuir fit
[9] = target: T1, Human LAG3 ECD-Fc; assay: blocking assay by FACS: LAG3 ECD-Fc pre-incubated with the antibody, then binding to MHC II on Raji cells detected with PE anti-human IgG, % inhibition against antibody concentration
[10] = target: T2, human LAG3 (ECD); assay: hybridoma screening

Binder | IC90 [1] [nM] | Kd [3] [nM] | IC90 [5] [nM] | Kd [8] [nM] | IC50 (read off the curve) [9] [nM] | other results
B1 | 2.12 | 16.6 | 2.09 |  |  | IC50 (read off the curve) [2]: ~1 nM; IC50 (read off the curve) [4]: ~0.8 nM
B2 | 2.97 | 61.8 | 3.64 |  |  | IC50 (read off the curve) [2]: ~1 nM; IC50 (read off the curve) [4]: ~1 nM
B3 | 1.68 | 6 | 1.95 |  |  | IC50 (read off the curve) [6]: ~0.8 nM; IC50 (read off the curve) [7]: ~1 nM
B4 |  |  |  | 0.1 |  | 
B5 |  |  |  | 0.125 | ~1 | 
B6 |  |  |  | 0.12 | ~0.8 | 
B7 |  |  |  | 0.09 | ~0.7 | 
B8 |  |  |  | 0.07 | ~1 | 
B9 |  |  |  |  |  | binding result [10]: binds
